These results are taken from article PMC9484696, “Identification of Aedes aegypti salivary gland proteins interacting with human immune receptor proteins” (PLoS Neglected Tropical Diseases, 2022).

The target in the test is T1, ectodomain of human CD4 (26-396 amino acid residues), recombinant (human, UniProt P01730 26-396).
T1 construct: CD4, human, ectodomain, residues 26-396; Cloned into pfastbac1 with the GP64 signal peptide for secretion and a preScission protease site; also called recombinant CD4; CD4 protein
The experiment in a line: ELISA; 5 μg salivary gland protein coated overnight at 4°C on high binding 96-well plates, blocked with 1% BSA in PBST; 1 μg CD4 or DC-SIGN ectodomain added at 37°C for 1 h; detected with rabbit anti-CD4 or HRP anti-DC-SIGN monoclonal antibody, TMB, read at 450 nm. Conditions: both partners purified. On the technique in general: ELISA stands for enzyme-linked immunosorbent assay.

B1: recombinant Ae. aegypti venom allergen 1 (AaVA-1) (natural protein, Aedes aegypti, UniProt A0A1S4EWW7 22-255, looked up)
chain: NYCDQSLCRRGPHVACNAPTQFGSACGQEPKFVKMDARMKNLLLKKHNELRAEIACGKHGFPQAARMPTLVWDDELAHIASFNARKCIFAHDKCRNTREFKFAGQNLAITAFAGYNFQAADRAENFTQEWFNEHKDCPKSYVDSYPMSHSGPQIGHFTQMVNDRAWKMGCSMVHYKNGRVIKYYLVCNYSMTNMIEEPIYTRGSAGSKCQTGQNPQYRGLCSPREKVRSESYRG
notes: Made with the GP64 signal peptide, so its own signal peptide was probably left out; also called AVAa-1
B1: the binding result is “binds”.
